In patent US9988424 (DUKE UNIVERSITY, dated 2018):

Key:
[1] = target: T1, AE.A244 gp120 delta 11 (HIV-1); experiment: ELISA
T1 construct: also called E.A244gp120Δ11; AE.A244 Δ11 gp120

[2] = target: AE.A244 V1V2 Tags (HIV-1); experiment: ELISA
[3] = target: C.CAP206 gp140CF.12 (HIV-1); experiment: ELISA, OD405 at 10 ug/ml
[4] = target: T2, SIV CPZ US-1 gp140CF (SIVcpz); experiment: ELISA, OD405 at 10 ug/ml
T2 construct: also called US-1 SIVCPZ gp140CF
T2 chain: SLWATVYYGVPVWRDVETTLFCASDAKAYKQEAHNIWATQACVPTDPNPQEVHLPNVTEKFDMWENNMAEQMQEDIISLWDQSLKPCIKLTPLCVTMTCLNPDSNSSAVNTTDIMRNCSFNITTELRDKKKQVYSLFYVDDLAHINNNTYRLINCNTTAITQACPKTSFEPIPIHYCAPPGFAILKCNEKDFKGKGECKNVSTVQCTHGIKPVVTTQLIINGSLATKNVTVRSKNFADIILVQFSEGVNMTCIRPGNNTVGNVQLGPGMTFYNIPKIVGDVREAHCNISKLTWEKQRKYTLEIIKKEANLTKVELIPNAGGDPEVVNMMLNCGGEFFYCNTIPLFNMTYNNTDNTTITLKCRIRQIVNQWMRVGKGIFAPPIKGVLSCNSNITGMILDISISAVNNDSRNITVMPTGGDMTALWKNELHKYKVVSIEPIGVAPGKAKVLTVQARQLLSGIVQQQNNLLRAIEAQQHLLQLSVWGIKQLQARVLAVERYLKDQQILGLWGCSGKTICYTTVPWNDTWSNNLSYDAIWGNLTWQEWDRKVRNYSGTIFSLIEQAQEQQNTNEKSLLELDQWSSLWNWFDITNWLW

[5] = target: T3, C.1086 gp140; experiment: ELISA, OD405 at 10 ug/ml
T3 construct: also called C.1086gp140C

[6] = target: T4, gp70 B.CaseA2 V1/V2 (HIV-1 V1V2 on murine leukemia virus gp70); experiment: ELISA, OD405 at 10 ug/ml
T4 construct: also called B.gp70CaseA2 V1/V2; gp70 B.CaseAV1V2
T4 chain: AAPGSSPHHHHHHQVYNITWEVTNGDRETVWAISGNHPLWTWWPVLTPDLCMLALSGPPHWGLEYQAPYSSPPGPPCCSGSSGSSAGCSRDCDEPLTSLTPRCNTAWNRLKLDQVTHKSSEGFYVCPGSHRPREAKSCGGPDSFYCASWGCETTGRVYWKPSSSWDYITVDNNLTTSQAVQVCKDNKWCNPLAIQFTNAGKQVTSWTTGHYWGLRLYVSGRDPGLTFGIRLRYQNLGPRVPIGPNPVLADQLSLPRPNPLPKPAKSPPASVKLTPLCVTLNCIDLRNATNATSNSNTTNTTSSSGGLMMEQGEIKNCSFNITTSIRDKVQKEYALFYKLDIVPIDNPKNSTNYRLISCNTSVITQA

[7] = target: Con 6 gp120; experiment: ELISA, OD405 at 10 ug/ml
[8] = target: T5, B.HXB/BAL gp140CFI (HIV-1, UniProt P04578 33-680); experiment: ELISA, OD405 at 10 ug/ml
T5 construct: also called B.HxB/Ba gp140 CFI

[9] = target: G.con gp140CF; experiment: ELISA, OD405 at 10 ug/ml
[10] = target: T6, AE.97CNG2XF gp140CF (HIV-1); experiment: ELISA, OD405 at 10 ug/ml
T6 construct: also called E.97CNGX2F gp140CF

[11] = target: T7, A.9004SS V1/V2 tags; experiment: ELISA, OD405 at 10 ug/ml
T7 V1V2 tags construct: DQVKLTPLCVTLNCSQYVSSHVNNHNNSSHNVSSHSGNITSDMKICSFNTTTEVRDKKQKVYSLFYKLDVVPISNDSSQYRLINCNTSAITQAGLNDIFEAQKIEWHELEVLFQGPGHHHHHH

[12] = target: T8, gp70 C.1086 V1/V2 (HIV-1 V1V2 on murine leukemia virus gp70); experiment: ELISA, OD405 at 10 ug/ml
T8 construct: also called C.gp70 1086C V1V2; C.1086gp70V1V2
T8 chain: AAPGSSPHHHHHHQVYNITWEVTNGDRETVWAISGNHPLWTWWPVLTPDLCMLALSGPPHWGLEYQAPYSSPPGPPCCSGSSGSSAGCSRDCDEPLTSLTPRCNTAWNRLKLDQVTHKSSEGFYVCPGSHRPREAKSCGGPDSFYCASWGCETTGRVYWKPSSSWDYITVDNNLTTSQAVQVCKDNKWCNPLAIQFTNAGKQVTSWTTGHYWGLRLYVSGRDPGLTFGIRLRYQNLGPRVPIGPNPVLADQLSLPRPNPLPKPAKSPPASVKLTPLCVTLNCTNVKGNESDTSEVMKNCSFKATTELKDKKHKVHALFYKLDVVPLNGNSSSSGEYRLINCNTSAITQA

[13] = target: B.040 gp140C; experiment: ELISA, OD405 at 10 ug/ml
[14] = target: AE.con gp140CF; experiment: ELISA, OD405 at 10 ug/ml
[15] = target: B.con gp140CF; experiment: ELISA, OD405 at 10 ug/ml

B1: CH01 UA3 (antibody, V domains shown)
VH: EVQLVESGGGVVRPGGSLRLSCAASGFTFDDYGMSWVRQAPGKGLEWVSGINWNGGSTGYADSVKGRFTISRDNAKNSLYLQMNSLRAEDTALYHCARGTDYTIDDQGIHYYGSGTYWYFDLWGRGTLVTVSS
VL: not shown
[1]
  EC50: 9.3 nM
[2]
  EC50: 18 nM
[3]
  binding result: no binding (tested: 10 ug/ml)
[4]
  binding result: no binding (tested: 10 ug/ml)
[5]
  binding result: no binding (tested: 10 ug/ml)
[6]
  binding result: no binding (tested: 10 ug/ml)
[7]
  binding result: no binding (tested: 10 ug/ml)
[8]
  binding result: no binding (tested: 10 ug/ml)
[9]
  binding result: no binding (tested: 10 ug/ml)
[10]
  binding result: no binding (tested: 10 ug/ml)
[11]
  binding result: no binding (tested: 10 ug/ml)
[12]
  binding result: no binding (tested: 10 ug/ml)
[13]
  binding result: no binding (tested: 10 ug/ml)
[14]
  binding result: no binding (tested: 10 ug/ml)
[15]
  binding result: no binding (tested: 10 ug/ml)
